Consider two molecules from patent publication US20160068605A1 (Janssen / Centocor, published 2016).

The target in test [1] is T1, sp2 isoform of human CD123 ECD with C-terminal 8xHis tag (crystallography) (human, UniProt P26951 101-303).
T1 construct: expressed in baculovirus-infected insect cells; also called CD123 sp2; CD123 SP2 ECD
T1 sequence: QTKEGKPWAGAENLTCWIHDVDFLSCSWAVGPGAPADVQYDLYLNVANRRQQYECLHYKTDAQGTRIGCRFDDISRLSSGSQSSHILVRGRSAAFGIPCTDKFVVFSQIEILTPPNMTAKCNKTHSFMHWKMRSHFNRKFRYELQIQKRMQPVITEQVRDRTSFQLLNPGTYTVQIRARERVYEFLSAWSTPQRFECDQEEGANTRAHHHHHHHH
Kind of test: size-exclusion chromatography of the mixed proteins. The procedure: The protein was concentrated to 18 mg/mL in 20 mM HEPES, pH 7.5, 100 mM NaCl.

Test [2] has as its target T2, cyno CD123 ECD displayed on pDisplay-transfected cells (cynomolgus monkey).
T2 construct: ECD anchored on the surface of stably transfected HEK293 cells; also called cynoCD123 SP1 cells; cynoCD123 cells
T2 chain: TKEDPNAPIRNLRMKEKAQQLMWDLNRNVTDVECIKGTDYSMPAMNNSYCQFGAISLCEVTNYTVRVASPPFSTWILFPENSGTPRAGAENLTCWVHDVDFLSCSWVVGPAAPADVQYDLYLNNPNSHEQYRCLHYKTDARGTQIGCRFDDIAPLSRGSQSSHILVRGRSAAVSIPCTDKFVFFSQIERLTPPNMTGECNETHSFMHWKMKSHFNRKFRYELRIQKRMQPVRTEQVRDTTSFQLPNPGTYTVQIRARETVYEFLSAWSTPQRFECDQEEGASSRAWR
Kind of test: MSD-CAT on pDisplay cells. The procedure: (§1) After equilibration the plate was centrifuged for 5 min ˜1000 rpm and free anti-CD3 detected on the supernatant. […] The assay buffer was removed without washing and 50 μL/well of 0.7 μg/mL of biotinylated antigen in assay buffer were added to MSD plates and incubated overnight (˜16 hr at 4° C.). After overnight incubation, the plates were blocked by adding 150 μL/well of assay buffer without removing coating antigen, incubated for ˜1 hr at ambient temperature and washed 5 times with wash buffer (assay buffer without BSA). 50 μL/well of the supernantants from samples plate were transferred to antigen-coated plates, incubated for 60 min, and then washed three times with wash Buffer. After this 50 μL per well of ruthenium labeled detection antibody(anti-human H+L) were added and incubated for 1 hr. After 1 hr the plates were washed and 150 μL of MSD Read Buffer (prepared by diluting 1:4 of stock into d. H₂O) were added per well. The plates were read immediately on the MSD Sector Imager 6000 Reader for luminescence levels. ECL signal detected by MSD was expressed in term of % free antibody in the mixture and the data was analyzed to determine affinity using a user defined equation (derived from the law of mass action) introduced in Prism software.

In test [3] the target is T2, cyno CD123 ECD displayed on …. Kind of test: MSD-CAT, cynoCD123 cells, assay-1. How it is done:
(§2) The MSD-CAT was developed in-house as a label-free method to determine affinity using intact cells in a high throughput format. […] Cell lines used were human pDisplay CD and cyno pDisplay CD123SP1. […] These samples were prepared in DMEM Glutamax medium containing 0.05% Azide, 1% BSA, 3 mM EDTA. The receptor numbers of (3.15-4.18)×10⁶ hCD123/cell and (4.78-9.24) 10⁶ cyCD123/cell were converted to M receptor concentration in the mixture on the basis of the volume of reaction, the cell density (cells/L) and the Avogadro's number. […] After equilibration the plate was centrifuged for 5 min ˜1000 rpm and free anti-CD3 detected on the supernatant.

For test [4], the target named is T3, human CD123 SP1 ECD displayed on pDisplay-transfected cells (human, UniProt P26951 20-305).
T3 construct: ECD anchored on the surface of stably transfected HEK293 cells by the PDGFR transmembrane domain; also called hCD123 SP1 cells; hCD123 cells
T3 sequence: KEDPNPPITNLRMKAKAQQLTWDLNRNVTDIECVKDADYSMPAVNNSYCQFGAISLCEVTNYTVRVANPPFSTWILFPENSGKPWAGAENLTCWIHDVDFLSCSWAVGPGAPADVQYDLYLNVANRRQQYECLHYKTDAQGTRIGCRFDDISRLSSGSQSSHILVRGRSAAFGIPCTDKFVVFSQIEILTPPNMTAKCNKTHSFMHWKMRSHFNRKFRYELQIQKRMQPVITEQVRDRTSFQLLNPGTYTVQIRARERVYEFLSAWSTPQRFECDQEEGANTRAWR
The test is described as follows: MSD-CAT, hCD123 cells, assay-2. The procedure: as §1

The target of test [5] is T4, Recombinant human CD123 SP2 ECD protein (human, UniProt P26951 101-303).
T4 construct: also called rhCD123 SP2; CD123 ECD SP2
T4 sequence: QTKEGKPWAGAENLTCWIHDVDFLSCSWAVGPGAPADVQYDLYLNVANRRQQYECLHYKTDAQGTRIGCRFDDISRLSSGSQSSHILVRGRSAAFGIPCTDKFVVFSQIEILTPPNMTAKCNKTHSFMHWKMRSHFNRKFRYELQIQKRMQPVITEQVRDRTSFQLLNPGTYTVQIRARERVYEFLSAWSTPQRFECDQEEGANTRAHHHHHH
Kind of test: SPR Biacore 3000, captured Fab. The procedure:
(§3) Kinetic studies were performed at 25° C. using a Biacore 3000 (BIAcore, Inc., now part of GE Healthcare). […] Sheep anti-Human Fd specific antibody (The binding site Prod # PC075) was covalently attached to two flow cells (normally 3 and 4) of the carboxymethyl dextran coated gold surfaces (CM-5 Chip, Biacore). The carboxymethyl groups of dextran were activated with N-Ethyl-N′-(3-Dimethylaminopropyl)carbodiimide (EDC) and N-hydroxysuccinimide (NHS). The antibodies were coupled at pH 4.5 in 10 mM sodium acetate. Any remaining reactive sites on the surface were blocked by reaction with ethanolamine. […] Association data was collected for 2 min followed by 10 min of dissociation. The surface was regenerated with 30 μL of 100 mM H3PO4 100 μL/min. All samples were prepared in D-PBS containing 3 mM EDTA and 0.005% surfactant P20. Data reported is the difference in SPR signal between the flow cell containing the captured antibody or Fab and a reference cell without captured antibody or Fab. Additional instrumental contributions to the signal were removed by subtraction of the data from the blank injection from the reference-subtracted signal. Data were performed in triplicate and analyzed by fitting association and dissociation phases at all concentrations (global fit) with a 1:1 binding model using the BIAevaluation software (BIAcore, Inc.). […] Data presented is an average.

Test [6] addresses T5, Recombinant human CD123 SP1 ECD-His tag protein (human, UniProt P26951 20-305).
T5 construct: bought from R&D Systems (#301-R3/CF); biotinylated for some assays; also called rhCD123 SP1; huCD123 ECD SP1
T5 sequence: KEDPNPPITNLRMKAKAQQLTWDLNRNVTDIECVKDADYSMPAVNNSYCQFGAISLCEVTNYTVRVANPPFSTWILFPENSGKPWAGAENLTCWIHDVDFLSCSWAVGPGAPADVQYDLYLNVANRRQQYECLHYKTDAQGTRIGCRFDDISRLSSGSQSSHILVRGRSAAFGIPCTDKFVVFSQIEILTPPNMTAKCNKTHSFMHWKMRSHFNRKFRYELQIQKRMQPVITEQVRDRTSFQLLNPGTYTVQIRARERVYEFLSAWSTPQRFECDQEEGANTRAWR
Kind of test: SPR Biacore 3000, captured Fab. How it is done:
as §3

Test [7] deals with T3, human CD123 SP1 ECD displayed on …. Kind of test: MSD-CAT, hCD123 cells, assay-1. The procedure: as §1
For test [8] the target is unchanged. Kind of test: MSD-CAT, hCD123 cells, assay-1, fit with parameter Bo constrained. The procedure:
as §1

Test [9] has the same target. The test is described as follows: MSD-CAT, hCD123 cells, assay-2, fit with parameter Bo constrained. The procedure: as §1
The target of test [10] is T2, cyno CD123 ECD displayed on …. Kind of test: MSD-CAT, cynoCD123 cells, assay-2. How it is done: as §2

B1: single-chain Fv fragment of anti-CD123 mAb I3RB18 (scFv)
scFv: EIVLTQSPGTLSLSPGERATLSCRASQSVSSSYLAWYQQKPGQAPRLLIYGASSRATGIPDRFSGSGSGTDFTLTISRLEPEDFAVYYCQQDYGFPWTFGQGTKVEIKGGGGSGGGGSGGGGSGGGGSEVQLVQSGAEVKKPGESLKISCKGSGYSFTSYWISWVRQMPGKGLEWMGIIDPSDSDTRYSPSFQGQVTISADKSISTAYLQWSSLKASDTAMYYCARGDGSTDLDYWGQGTLVTVSSGHHHHHH
notes: form VL-(Gly4Ser)4-VH-Gly-His6, expressed in HEK293 Expi cells; also called I3RB18 scFv; I3RB18 derived scFv
As to B1, the binding result in [1] is “binds”.

B2: I3RB120 (Fab, V domains shown)
VH: EVQLLESGGGLVQPGGSLRLSCAASGFTFSGYWMHWVRQAPGKGLEWVSAIRSDGSSKYYADSVKGRFTISRDNSKNTLYLQMNSLRAEDTAVYYCAKDGVIEDTFDYWGQGTLVTVSS
VL: EIVLTQSPATLSLSPGERATLSCRASQSVSSYLAWYQQKPGQAPRLLIYDASNRATGIPARFSGSGSGTDFTLTISSLEPEDFAVYYCQQRSNWPLTFGQGTKVEIK
notes: also called Fab I3RB120; I3RB2 Fab
For the molecule B2, in [2], the “fold difference of affinity against human CD123 SP1” value is less than 5 fold. Further, the Kd in [3] is 2.4 nM; in test [4], roughly 3.84 nM; in [5], 1.4 nM; in test [6], 8.5 nM; in test [7], roughly 0.00337 nM; in [8], 344 nM. Further, the Kd is 3.81 nM in test [9] and greater than 11.9 nM in [10]. Further, the dissociation rate constant (koff) in [6] came to 0.00304 s⁻¹. Moreover, in test [6], the kon was found to be 357000 M⁻¹ s⁻¹.
